In patent US20220017589A1 (BEIJING QL BIOPHARMACEUTICAL, published 2022):
Positions count from the first letter of the chain named.

B1: MLC006 (ligand)
chain: HGEGTFTSDVSSYLEEQAAREFIAWLVRGKGGQEPGQEPGQEPGQEPGQEPGQEPGQEPGQEPGAQPGAQPARQGDHCPLGPGRCCRLHTVRASLEDLGWADWVLSPREVQVTMCIGACPSQFRAANLHAQIKTSLHRLRPDTVPAPCCVPASYNPMVLIQRTDTGVSLQTYDDLLARDCHCI
modifications: Moiety A (HOOC-(CH2)16-CO-gGlu-2XADO) on 36K of GLP-1 (30K of fusion polypeptide)
B2: MLC003 (ligand)
chain: B1 chain with R20K, K30G
B3: MLC007 (ligand)
chain: B1 chain with K30G, G32K
modifications: Moiety A (HOOC-(CH2)16-CO-gGlu-2XADO) on 1K of Linker (32K of fusion polypeptide)
B4: MLC020 (ligand)
chain: B1 chain with R20K, K30G, R140K, R162K, R178K
B5: MLC012 (ligand)
chain: B1 chain with K30G, P43K, A65Q, Q66E, A69Q, Q70E
modifications: Moiety A (HOOC-(CH2)16-CO-gGlu-2XADO) on 12K of Linker (43K of fusion polypeptide)
B6: MLC008 (ligand)
chain: B1 chain with K30G, Q37K
modifications: Moiety A (HOOC-(CH2)16-CO-gGlu-2XADO) on 6K of Linker (37K of fusion polypeptide)
B7: MLC002 (ligand)
chain: B1 chain with R20K, K30G
modifications: Moiety A (HOOC-(CH2)16-CO-gGlu-2XADO) on 26K of GLP-1 (20K of fusion polypeptide)
B8: MLC009 (ligand)
chain: B1 chain with K30G, E46K
modifications: Moiety A (HOOC-(CH2)16-CO-gGlu-2XADO) on 15K of Linker (46K of fusion polypeptide)
B9: MLC102 (ligand)
chain: HGEGTFTSDVSSYLEEQAAKEFIAWLVRGGGGQEPGAQPGQEPGAQPGQEPGAQPGQEPGAQPGQEPGAQPGQEPGAQPGAQPGAQPGAQPGAQPGAQPGAQPGAQPGAQPGAQPGAQPGAQPGAQPGAQPGAQPGAQPGAQPGAQPGAQPARQGDHCPLGPGRCCRLHTVRASLEDLGWADWVLSPREVQVTMCIGACPSQFRAANLHAQIKTSLHRLKPDTVPAPCCVPASYNPMVLIQKTDTGVSLQTYDDLLAKDCHCI
B10: MLC022 (ligand)
chain: HGEGTFTSDVSSYLEEQAAKEFIAWLVRGGGGQEPGQEPGQEPGQEPGQEPGQEPARQGDHCPLGPGRCCRLHTVRASLEDLGWADWVLSPREVQVTMCIGACPSQFRAANLHAQIKTSLHRLKPDTVPAPCCVPASYNPMVLIQKTDTGVSLQTYDDLLAKDCHCI
B11: MLC097 (ligand)
chain: EGTFTSDVSSYLEEQAAKEFIAWLVRGGGGQEPGAQPGQEPGAQPGQEPGAQPGQEPGAQPGQEPGAQPGQEPGAQPGAQPGAQPGAQPGAQPGAQPGAQPGAQPGAQPARQGDHCPLGPGRCCRLHTVRASLEDLGWADWVLSPREVQVTMCIGACPSQFRAANLHAQIKTSLHRLKPDTVPAPCCVPASYNPMVLIQKTDTGVSLQTYDDLLAKDCHCI
B12: MLC100 (ligand)
chain: HGEGTFTSDVSSYLEEQAAKEFIAWLVRGGGGQEPARQGDHCPLGPGRCCRLHTVRASLEDLGWADWVLSPREVQVTMCIGACPSQFRAANLHAQIKTSLHRLKPDTVPAPCCVPASYNPMVLIQKTDTGVSLQTYDDLLAKDCHCI
B13: MLC023 (ligand)
chain: HGEGTFTSDVSSYLEEQAAKEFIAWLVRGGGGQEPGQEPGQEPARQGDHCPLGPGRCCRLHTVRASLEDLGWADWVLSPREVQVTMCIGACPSQFRAANLHAQIKTSLHRLKPDTVPAPCCVPASYNPMVLIQKTDTGVSLQTYDDLLAKDCHCI
B14: MLC043 (ligand)
chain: HGEGTFTSDVSSYLEEQAAKEFIAWLVRGGGGQEPGAQPGQEPGAQPGQEPGAQPGQEPGAQPGQEPGAQPGQEPGAQPGAQPGAQPGAQPARQGDHCPLGPGRCCRLHTVRASLEDLGWADWVLSPREVQVTMCIGACPSQFRAANLHAQIKTSLHRLRPDTVPAPCCVPASYNPMVLIQRTDTGVSLQTYDDLLARDCHCI
modifications: Moiety A (HOOC-(CH2)16-CO-gGlu-2XADO) on 26K of GLP-1 (20K of fusion polypeptide)
B15: MLC124 (ligand)
chain: B14 chain
B16: MLC021 (ligand)
chain: HGEGTFTSDVSSYLEEQAAKEFIAWLVRGGGGQEPGAQPGQEPGAQPGQEPGAQPGQEPGAQPGQEPGAQPGQEPGAQPGAQPGAQPGAQPGAQPGAQPGAQPGAQPGAQPARQGDHCPLGPGRCCRLHTVRASLEDLGWADWVLSPREVQVTMCIGACPSQFRAANLHAQIKTSLHRLKPDTVPAPCCVPASYNPMVLIQKTDTGVSLQTYDDLLAKDCHCI
B17: MLC019 (ligand)
chain: B16 chain with K180R, K202R, K218R
B18: MLC096 (ligand)
chain: B16 chain with V198R
B19: MLC026 (ligand)
chain: HGEGTFTSDVSSYLEEQAAREFIAWLVRGGGGAQPGAQPGAQPGAQPGAQPGAQPGAQPGAQPGAQPGAQPGQEPGQEPGQEPGQKPGQEPGQEPGQEPGQEPGAQPGAQPARQGDHCPLGPGRCCRLHTVRASLEDLGWADWVLSPREVQVTMCIGACPSQFRAANLHAQIKTSLHRLRPDTVPAPCCVPASYNPMVLIQRTDTGVSLQTYDDLLARDCHCI
modifications: Moiety A (HOOC-(CH2)16-CO-gGlu-2XADO) on 55K of Linker (86K of fusion polypeptide)
B20: MLC027 (ligand)
chain: B19 chain with A65Q, Q66E, Q77A, E78Q
modifications: Moiety A (HOOC-(CH2)16-CO-gGlu-2XADO) on 55K of Linker (86K of fusion polypeptide)

molecular target: T1, human GFRAL (human, UniProt Q6UXV0 19-394); experiment: cell-based or functional assay
T1 sequence (looked up): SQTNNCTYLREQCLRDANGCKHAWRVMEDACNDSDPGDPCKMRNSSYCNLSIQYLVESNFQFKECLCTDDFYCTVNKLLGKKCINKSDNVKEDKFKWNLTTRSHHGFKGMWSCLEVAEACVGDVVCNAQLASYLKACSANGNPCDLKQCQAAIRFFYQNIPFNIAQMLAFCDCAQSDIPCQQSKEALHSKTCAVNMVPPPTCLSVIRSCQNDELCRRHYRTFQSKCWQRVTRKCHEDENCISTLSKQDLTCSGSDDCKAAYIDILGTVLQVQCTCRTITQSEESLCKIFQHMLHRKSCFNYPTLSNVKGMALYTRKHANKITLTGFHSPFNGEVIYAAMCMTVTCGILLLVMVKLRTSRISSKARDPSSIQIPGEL

Binder | GDF15 activity (EC50, pM) [pM]
B1 | 11.6
B2 | 55
B3 | 9.5
B4 | 55.9
B5 | 32.8
B6 | 15.3
B7 | 17.9
B8 | 24.6
B9 | 29
B10 | 59.2
B11 | 32.9
B12 | 29.9
B13 | 62.8
B14 | 39
B15 | 27.5
B16 | 67.3
B17 | 80.5
B18 | > 5000
B19 | 56.1
B20 | 45.4

molecular target: human GLP-1 receptor (human, UniProt P43220 24-463); experiment: cell-based or functional assay

Binder | GLP-1 activity (EC50, pM) [pM]
B1 | 28.7
B2 | 7.8
B3 | 5.9
B5 | 3.5
B6 | 4.3
B7 | 13.1
B8 | 1.8
B9 | 2.5
B10 | 6.7
B11 | > 900
B12 | 3.1
B13 | 4
B14 | 1.8
B15 | 2.5
B16 | 5.7
B17 | 8
B18 | 1.3
